Patent US20250051417A1

Legend:
[1] = molecular target: biotinylated Monomer MHC (HLA-A* 02:01 SLC45A2 (Biolegend, Custom Product, … (SEQ ID NO: 2)) (human)); assay: flow cytometry of stained beads, calibrated; divided by the nominal bead surface area
[2] = molecular target: biotinylated Monomer MHC (HLA-A* 02:01 SLC45A2 (Biolegend, Custom Product, … (SEQ ID NO: 2)) (human)); assay: flow cytometry of stained beads, calibrated; divided by the bead surface area
[3] = molecular target: costimulation antibodies on the antigen presenting beads (biotinylated anti-CD28 and biotinylated anti-CD2); assay: flow cytometry of stained beads, APC intensity calibrated with Quantum Simply Cellular beads; assumes 1 detection antibody per costimulation antibody
[4] = molecular target: costimulation antibodies on the antigen presenting beads (biotinylated anti-CD28 and biotinylated anti-CD2); assay: flow cytometry of stained beads, calibrated; divided by the nominal bead surface area
[5] = molecular target: costimulation antibodies on the antigen presenting beads (biotinylated anti-CD28 and biotinylated anti-CD2); assay: flow cytometry of stained beads, calibrated; divided by the bead surface area
[6] = molecular target: Biotinylated peptide-Human Leukocyte Antigen complexes (pMHC); assay: flow cytometry of stained beads, APC MFI calibrated with Quantum Simply Cellular beads; polymeric bead
[7] = molecular target: Biotinylated peptide-Human Leukocyte Antigen complexes (pMHC); assay: flow cytometry of stained beads, APC MFI calibrated with Quantum Simply Cellular beads; silica bead

APC-conjugated anti-HLA-A (Biolegend, Catalog Number 343308) (antibody)
pMHC Density (molecules/sq micron) [1]: 19800 | pMHC Density (molecules/sq micron) [2]: 14800

APC-conjugated monoclonal anti-Mouse-IgG1 (Biolegend, Catalog Number 406610) (antibody)
Costimulation antibodies/bead (anti-Mouse IgG1 antibodies bound per bead) (antibodies/bead) ([3]; M-280 convoluted polymer beads): 427000 | Costimulation antibodies/bead (anti-Mouse IgG1 antibodies bound per bead) (antibodies/bead) ([3]; substantially spherical silica beads): 845000 | Costimulation Antibody Density (molecules/sq micron) [4]: 17300 | Costimulation Antibody Density (molecules/sq micron) [5]: 15600

anti-HLA-A conjugated to APC (Clone BB7.2, Biolegend) (antibody)
Ligands/Bead (detection antibodies bound per bead) [6]: 487000 Ligands/Bead | Ligands/sq um (Ligands/sq um) [6]: 19800 | Ligands/Bead (detection antibodies bound per bead) [7]: 604000 Ligands/Bead | Ligands/sq um (Ligands/sq um) [7]: 12000
